± gives the standard deviation of the averaged measurements.
B1: library; a variant is named by its letters at N, in order (parent)
chain: GCUGUCACCGGUGUAUUACCCUAGUGGUCGACCGGUCUGAUGAGUCUNNNNNNAGACGAAACAGC

Columns and labels:
hypoxanthine [1] = variants of: B1; assay: normalized RNA/DNA level with ligand (relative to sTRSVctl = 100) (log10 (% of sTRSVctl)); ligand: hypoxanthine (xanthine aptamer); higher = less ribozyme self-cleavage, higher mRNA level; settings: ligand concentration (+) RNA-Seq: 5 mM, HEK293T, reporter: mCherry (pCS4076), ligand present: yes
How it was run: (§1)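 Ribozyme switch library plasmids with mCherry reporters (eGFP in certain ligand experiments) went into HEK293T cells at 4 µg per 6-well well. Where ligand was used, it was applied 1 h before transfection, and total RNA was extracted with EDTA 72 h later for reverse transcription, amplification, barcoding and sequencing. RNA level is the RNA-to-DNA read ratio normalized to a spiked-in non-cleaving sequence or to the leading sequences, then scaled and log-transformed. Scaling was ×100 with log10, the leading set comprised 25 sequences, and the cutoff was ≥100 DNA reads.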

hypoxanthine [2] = variants of: B1; assay: normalized RNA/DNA level without ligand (relative to sTRSVctl = 100) (log10 (% of sTRSVctl)); ligand: hypoxanthine (xanthine aptamer); higher = less ribozyme self-cleavage, higher mRNA level; settings: HEK293T, reporter: mCherry (pCS4076), ligand present: no
How it was run: as §1

Variant | normalized RNA/DNA level with ligand (log10) (hypoxanthine [1]) | normalized RNA/DNA level without ligand (log10) (hypoxanthine [2])
AUGCUC | 2.008 ± 0.011 | 1.976 ± 0.013
GUCUAU | 1.94 ± 0.059 | 1.82 ± 0.026
CUGCAA | 1.933 ± 0.0062 | 1.773 ± 0.015
CUGCAU | 1.94 ± 0.043 | 1.8 ± 0.074
CUGCAC | 1.94 ± 0.057 | 1.869 ± 0.018
CUGGGA | 2.03 ± 0.061 | 1.857 ± 0.015
CUGGGU | 2 ± 0.069 | 1.881 ± 0.005
CUGGGC | 1.98 ± 0.047 | 1.902 ± 0.0037
GUGUUC | 1.909 ± 0.0089 | 1.84 ± 0.044
GUGUUU | 1.92 ± 0.041 | 1.87 ± 0.046
GUGUUA | 1.912 ± 0.017 | 1.79 ± 0.047
CUUAGU | 1.936 ± 0.016 | 1.906 ± 0.0051
CUUAGG | 1.94 ± 0.075 | 1.84 ± 0.053
CUUAGA | 1.984 ± 0.0081 | 1.852 ± 0.0069
CUUAGC | 1.944 ± 0.011 | 1.87 ± 0.018
UUGCUG | 2.009 ± 0.012 | 1.94 ± 0.028
UUGCUC | 2.061 ± 0.0057 | 1.9913 ± 0.0008
UUGCUA | 1.95 ± 0.045 | 1.897 ± 0.0028
UUGCGC | 1.94 ± 0.027 | 1.91 ± 0.02
UUGCGA | 1.994 ± 0.015 | 1.88 ± 0.027
UUGCGU | 1.97 ± 0.024 | 1.82 ± 0.067
UUUACU | 1.94 ± 0.024 | 1.876 ± 0.0032
UUUACG | 1.92 ± 0.035 | 1.76 ± 0.048
UUUACC | 1.957 ± 0.011 | 1.867 ± 0.014

Variant | normalized RNA/DNA level with ligand (log10) (hypoxanthine [1]) | normalized RNA/DNA level without ligand (log10) (hypoxanthine [2])
UUUACA | 1.97 ± 0.04 | 1.912 ± 0.011
UUGAAC | 1.92 ± 0.052 | 1.855 ± 0.01
UUGAAU | 1.95 ± 0.03 | 1.8 ± 0.031
GUUAAG | 1.853 ± 0.0019 | 1.48 ± 0.027
GUUAAA | 1.933 ± 0.0032 | 1.798 ± 0.0025
GUUAUA | 1.881 ± 0.0041 | 1.83 ± 0.025
GUCUCC | 1.99 ± 0.047 | 1.94 ± 0.084
GUCUCA | 1.965 ± 0.019 | 1.943 ± 0.0073
UUGACC | 1.96 ± 0.049 | 1.987 ± 0.011
UUGACU | 1.95 ± 0.077 | 1.9 ± 0.042
GUGACC | 1.931 ± 0.012 | 1.74 ± 0.019
GUGACA | 1.9 ± 0.04 | 1.78 ± 0.033
CUGCCA | 2.03 ± 0.043 | 1.886 ± 0.011
CUGCCC | 1.99 ± 0.039 | 1.971 ± 0.0093
CUGCCG | 1.96 ± 0.082 | 1.8 ± 0.026
CUGCCU | 1.95 ± 0.097 | 1.92 ± 0.036
AUCUAU | 1.93 ± 0.032 | 1.83 ± 0.074
CUGUCC | 2.01 ± 0.024 | 1.92 ± 0.053
CUGUCG | 1.98 ± 0.027 | 1.84 ± 0.032
CUGUCU | 2.03 ± 0.079 | 1.89 ± 0.077
AUGUGC | 1.853 ± 0.018 | 1.667 ± 0.0026
AUCUGU | 1.91 ± 0.026 | 1.787 ± 0.014
AUCUGC | 1.97 ± 0.04 | 1.88 ± 0.022
UUGUGC | 2.02 ± 0.024 | 1.99 ± 0.047

Variant | normalized RNA/DNA level with ligand (log10) (hypoxanthine [1]) | normalized RNA/DNA level without ligand (log10) (hypoxanthine [2])
UUGUGU | 1.97 ± 0.051 | 1.93 ± 0.043
UUGUGA | 1.985 ± 0.003 | 1.8 ± 0.062
GUGGGC | 1.81 ± 0.1 | 1.33 ± 0.11
AUGAGU | 1.87 ± 0.026 | 1.44 ± 0.11
AUGAGC | 1.8938 ± 0.00087 | 1.57 ± 0.055
UUGUUA | 1.983 ± 0.0091 | 2.01 ± 0.043
UUGUUG | 2.027 ± 0.012 | 1.9556 ± 0.0016
UUGUUU | 2.039 ± 0.018 | 2.04 ± 0.042
UUGUUC | 2.012 ± 0.012 | 2.01 ± 0.032
UUUAAG | 1.915 ± 0.016 | 1.71 ± 0.043
UUUAAA | 1.94 ± 0.034 | 1.76 ± 0.036
AUGACU | 1.95 ± 0.024 | 1.829 ± 0.016
AUGACC | 1.914 ± 0.019 | 1.902 ± 0.016
UUGUCC | 1.99 ± 0.03 | 2.03 ± 0.067
UUGUCA | 1.99 ± 0.037 | 1.946 ± 0.01
UUGUCU | 1.99 ± 0.03 | 2.02 ± 0.083
UUGUCG | 1.99 ± 0.025 | 1.947 ± 0.0075
AUGGUU | 1.89 ± 0.034 | 1.763 ± 0.012
GUGUCA | 1.94 ± 0.052 | 1.77 ± 0.043
GUGUCU | 1.95 ± 0.04 | 1.85 ± 0.019
GUGUCC | 1.97 ± 0.036 | 1.776 ± 0.0043
GUCUGG | 1.878 ± 0.016 | 1.48 ± 0.0028
GUCUGC | 1.92 ± 0.038 | 1.707 ± 0.0074
GUCUGA | 1.954 ± 0.0094 | 1.79 ± 0.03

Variant | normalized RNA/DNA level with ligand (log10) (hypoxanthine [1]) | normalized RNA/DNA level without ligand (log10) (hypoxanthine [2])
GUCUGU | 1.948 ± 0.018 | 1.841 ± 0.015
GUGCCC | 1.93 ± 0.027 | 1.82 ± 0.049
GUGCCU | 1.98 ± 0.042 | 1.891 ± 0.0069
GUGCCA | 1.93 ± 0.021 | 1.81 ± 0.035
AUCUUA | 1.916 ± 0.012 | 1.827 ± 0.011
AUCUUC | 2.02 ± 0.031 | 2.006 ± 0.0047
AUCUUU | 1.99 ± 0.024 | 1.91 ± 0.046
CUCUUU | 2 ± 0.0092 | 1.912 ± 0.014
CUCUUG | 1.93 ± 0.045 | 1.87 ± 0.044
CUCUUA | 1.895 ± 0.0051 | 1.825 ± 0.012
UUCUAG | 1.936 ± 0.0068 | 1.67 ± 0.059
UUCUAU | 1.95 ± 0.047 | 1.867 ± 0.016
GUGUAC | 1.92 ± 0.045 | 1.69 ± 0.11
CUGGAC | 1.97 ± 0.03 | 1.87 ± 0.03
CUGGAG | 1.86 ± 0.019 | 1.62 ± 0.037
CUGGAA | 1.94 ± 0.033 | 1.771 ± 0.013
CUGGAU | 1.94 ± 0.051 | 1.75 ± 0.072
UUGCCA | 1.95 ± 0.017 | 1.94 ± 0.028
UUGCCC | 1.99 ± 0.025 | 1.997 ± 0.0042
UUGCCU | 2.007 ± 0.018 | 1.99 ± 0.057
GUGGUC | 1.96 ± 0.038 | 1.79 ± 0.054
GUGGUU | 1.96 ± 0.064 | 1.875 ± 0.017
AUGCCC | 1.97 ± 0.062 | 1.87 ± 0.048
AUGCCG | 1.837 ± 0.01 | 1.49 ± 0.089

Variant | normalized RNA/DNA level with ligand (log10) (hypoxanthine [1]) | normalized RNA/DNA level without ligand (log10) (hypoxanthine [2])
AUGCCU | 1.958 ± 0.0056 | 1.818 ± 0.0027
CUUAAU | 1.9 ± 0.0027 | 1.76 ± 0.028
CUUAAG | 1.93 ± 0.081 | 1.69 ± 0.018
CUUAAA | 1.899 ± 0.0031 | 1.8 ± 0.036
AUUAGU | 1.95 ± 0.028 | 1.712 ± 0.0075
UUCUUU | 1.927 ± 0.013 | 1.98 ± 0.034
UUCUUA | 1.95 ± 0.014 | 1.883 ± 0.018
UUCUUC | 2.01 ± 0.062 | 2.06 ± 0.039
UUCUUG | 1.92 ± 0.068 | 1.794 ± 0.016
AUGCAU | 1.87 ± 0.032 | 1.76 ± 0.019
AUGCAC | 1.91 ± 0.12 | 1.74 ± 0.034
UUCUGC | 1.998 ± 0.019 | 1.92 ± 0.049
UUCUGU | 1.947 ± 0.0095 | 1.883 ± 0.018
UUCUGA | 2.03 ± 0.036 | 1.834 ± 0.0034
CUGAAC | 1.9 ± 0.066 | 1.76 ± 0.019
CUGAAU | 1.93 ± 0.062 | 1.74 ± 0.062
CUGGUG | 1.94 ± 0.059 | 1.76 ± 0.022
CUGGUU | 2.01 ± 0.024 | 1.858 ± 0.0054
CUGGUA | 1.93 ± 0.022 | 1.773 ± 0.01
CUGGUC | 1.96 ± 0.026 | 1.93 ± 0.023

— the supplement of paper PMC6757056
